{"source": "patent US20070202134A1", "about": "“Muc1 Antagonist Enhancement of Death Receptor Ligand-Induced Apoptosis” (priority 2004, published 2007)", "tested_on": "HCT116/vector cells", "experiment": "Apoptosis by analysis of sub-G1 DNA, HCT116/vector cells", "type": "cell-based, Human", "conditions": "100 ng/ml TRAIL for 14 hr, without adding CHX", "method": "Methods. Apoptotic cells were quantified by analysis of sub-G1 DNA and TUNEL staining. To assess sub-G1 DNA content, cells were harvested, washed with PBS, fixed with 80% ethanol, and incubated in PBS containing 20 ng/ml RNase (Roche) for 60 min at 37° C. Cells were then stained with […] propidium iodide (Sigma) for 30 min at room temperature in the dark. DNA content was analyzed by flow cytometry (EPICS XL-MCL, Coulter Corp.). Apoptotic cells with DNA fragmentation were detected by staining with the In Situ cell death detection kit (TUNEL; Roche Applied Science) and visualized by confocal microscopy (ZEISS LSM510). After staining, cells were analyzed by flow cytometry. Other experimental procedures and methods were as described in Example 1.", "data": [{"molecule": "TRAIL: TNF-related apoptosis-inducing ligand, rhTRAIL (Calbiochem-Novabiochem) (protein, UniProt P50591 1-281, looked up) Tumor necrosis factor ligand …: MAMMEVQGGPSLGQTCVLIVIFTVLLQSLCVAVTYVYFTNELKQMQDKYSKSGIACFLKEDDSYWDPNDEESMNSPCWQVKWQLRQLVRKMILRTSEETISTVQEKQQNISPLVRERGPQRVAAHITGTRGRSNTLSSPNSKNEKALGRKINSWESSRSGHSFLSNLHLRNGELVIHEKGFYYIYSQTYFRFQEEIKENTKNDKQMVQYIYKYTSYPDPILLMKSARNSCWSKDAEYGLYSIYQGGIFELKENDRIFVSVTNEHLIDMDHEASFFGAFLVG", "values": [{"measurement": "induction of apoptosis", "value": "effective in inducing apoptosis"}]}]}
